Experiments:
Grb2 SH2 = Grb2 SH2 (UniProt P62993); experiment: SH2 binding enrichment of the phosphorylated peptide, bacterial display (enrichment ratio); higher = better substrate or ligand; peptides without Tyr show the background
c-Src SH2 = experiment: as above
SHP2-C SH2 = experiment: as above
EPHB1 = EPHB1 (UniProt P54762); experiment: phosphorylation enrichment, bacterial display (enrichment ratio); higher = better substrate or ligand; peptides without Tyr show the background
Hck = Hck (UniProt P08631); experiment: as above
Fes = Fes (UniProt P07332); experiment: as above
EPHB2 = EPHB2 (UniProt P29323); experiment: as above
c-Abl (mouse) = experiment: as above
Fer (mouse) = experiment: as above
FGFR3 = FGFR3 (UniProt P22607); experiment: as above
AncSZ = experiment: as above
Jak2 = Jak2 (UniProt O60674); experiment: as above
Fyn = Fyn (UniProt P06241); experiment: as above
FGFR1 = FGFR1 (UniProt P11362); experiment: as above
MERTK = MERTK (UniProt Q12866); experiment: as above
c-Src = experiment: as above
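For SH2 binding enrichment of the phosphorylated peptide, bacterial display in this document: peptide library displayed on the E. coli surface as eCPX fusions, selected cells deep-sequenced, score is each peptide's frequency after selection divided by its frequency in the input.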
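For phosphorylation enrichment, bacterial display in this document: 11-residue human phosphosite peptides and single-mutation variants displayed on the E. coli surface, counted by deep sequencing, each peptide's frequency after selection divided by its frequency in the unselected input library; frequency after pTyr selection over input frequency; kinase dosed for 20-30% of maximal phosphorylation in three min.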

Chain of Fyn (P06241 whole entry, looked up): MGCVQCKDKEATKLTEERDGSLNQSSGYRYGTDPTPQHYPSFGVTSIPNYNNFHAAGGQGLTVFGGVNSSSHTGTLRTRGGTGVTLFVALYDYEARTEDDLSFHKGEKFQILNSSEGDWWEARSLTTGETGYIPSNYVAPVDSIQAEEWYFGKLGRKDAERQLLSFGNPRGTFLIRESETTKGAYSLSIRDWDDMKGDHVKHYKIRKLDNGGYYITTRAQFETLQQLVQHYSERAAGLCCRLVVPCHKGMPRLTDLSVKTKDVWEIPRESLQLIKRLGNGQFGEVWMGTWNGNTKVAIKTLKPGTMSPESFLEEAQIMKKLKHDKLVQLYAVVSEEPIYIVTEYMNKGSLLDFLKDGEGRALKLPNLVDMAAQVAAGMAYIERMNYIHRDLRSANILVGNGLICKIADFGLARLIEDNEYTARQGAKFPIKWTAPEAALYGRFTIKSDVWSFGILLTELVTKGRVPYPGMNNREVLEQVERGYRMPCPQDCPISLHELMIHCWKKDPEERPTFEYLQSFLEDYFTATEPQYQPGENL
Chain of FGFR3 (P22607 whole entry, looked up): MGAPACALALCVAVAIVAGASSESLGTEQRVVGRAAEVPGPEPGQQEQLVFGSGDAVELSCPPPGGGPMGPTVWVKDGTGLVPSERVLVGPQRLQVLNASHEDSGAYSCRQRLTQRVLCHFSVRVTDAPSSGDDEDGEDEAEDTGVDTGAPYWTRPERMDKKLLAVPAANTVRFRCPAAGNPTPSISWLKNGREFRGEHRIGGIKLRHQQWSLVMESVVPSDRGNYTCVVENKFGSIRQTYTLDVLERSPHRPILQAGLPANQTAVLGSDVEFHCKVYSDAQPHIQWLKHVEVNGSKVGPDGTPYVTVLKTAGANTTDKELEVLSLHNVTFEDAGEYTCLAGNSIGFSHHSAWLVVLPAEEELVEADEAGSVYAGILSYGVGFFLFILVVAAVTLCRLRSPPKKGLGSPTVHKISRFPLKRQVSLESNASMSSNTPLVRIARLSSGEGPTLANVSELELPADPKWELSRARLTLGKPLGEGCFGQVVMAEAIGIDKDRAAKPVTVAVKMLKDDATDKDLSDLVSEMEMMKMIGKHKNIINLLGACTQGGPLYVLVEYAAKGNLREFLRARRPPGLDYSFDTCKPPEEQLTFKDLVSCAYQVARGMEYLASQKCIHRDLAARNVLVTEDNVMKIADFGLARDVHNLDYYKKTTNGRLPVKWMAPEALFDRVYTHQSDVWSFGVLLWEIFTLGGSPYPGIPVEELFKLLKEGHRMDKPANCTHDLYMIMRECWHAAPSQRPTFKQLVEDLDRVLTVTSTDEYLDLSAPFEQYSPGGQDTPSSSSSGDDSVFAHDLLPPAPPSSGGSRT
Chain of EPHB1 (P54762 whole entry, looked up): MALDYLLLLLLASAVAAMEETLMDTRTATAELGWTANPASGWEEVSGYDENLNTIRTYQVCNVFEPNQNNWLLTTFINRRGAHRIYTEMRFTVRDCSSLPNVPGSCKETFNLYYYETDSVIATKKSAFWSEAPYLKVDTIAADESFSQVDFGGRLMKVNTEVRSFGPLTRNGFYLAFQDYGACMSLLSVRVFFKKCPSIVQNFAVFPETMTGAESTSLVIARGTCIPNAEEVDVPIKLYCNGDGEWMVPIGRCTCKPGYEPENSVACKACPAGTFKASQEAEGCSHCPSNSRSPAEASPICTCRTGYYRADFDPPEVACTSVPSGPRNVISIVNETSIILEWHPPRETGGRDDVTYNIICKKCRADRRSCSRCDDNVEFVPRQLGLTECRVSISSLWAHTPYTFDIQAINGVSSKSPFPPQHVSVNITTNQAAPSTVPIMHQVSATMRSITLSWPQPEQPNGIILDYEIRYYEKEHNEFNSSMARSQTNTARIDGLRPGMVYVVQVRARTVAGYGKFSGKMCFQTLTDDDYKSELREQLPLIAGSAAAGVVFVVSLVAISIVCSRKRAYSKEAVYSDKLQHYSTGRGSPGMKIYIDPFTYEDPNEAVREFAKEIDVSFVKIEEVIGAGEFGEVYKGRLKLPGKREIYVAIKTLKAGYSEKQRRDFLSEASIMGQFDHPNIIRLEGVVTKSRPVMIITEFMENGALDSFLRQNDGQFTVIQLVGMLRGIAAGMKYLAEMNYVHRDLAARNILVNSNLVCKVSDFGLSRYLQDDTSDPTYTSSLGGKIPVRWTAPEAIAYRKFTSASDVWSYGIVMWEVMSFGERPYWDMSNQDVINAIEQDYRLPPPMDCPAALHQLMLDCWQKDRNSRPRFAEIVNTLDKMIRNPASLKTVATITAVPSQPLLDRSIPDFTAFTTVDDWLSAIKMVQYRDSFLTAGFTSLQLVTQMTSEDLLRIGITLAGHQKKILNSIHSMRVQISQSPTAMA
Chain of Hck (P08631 whole entry, looked up): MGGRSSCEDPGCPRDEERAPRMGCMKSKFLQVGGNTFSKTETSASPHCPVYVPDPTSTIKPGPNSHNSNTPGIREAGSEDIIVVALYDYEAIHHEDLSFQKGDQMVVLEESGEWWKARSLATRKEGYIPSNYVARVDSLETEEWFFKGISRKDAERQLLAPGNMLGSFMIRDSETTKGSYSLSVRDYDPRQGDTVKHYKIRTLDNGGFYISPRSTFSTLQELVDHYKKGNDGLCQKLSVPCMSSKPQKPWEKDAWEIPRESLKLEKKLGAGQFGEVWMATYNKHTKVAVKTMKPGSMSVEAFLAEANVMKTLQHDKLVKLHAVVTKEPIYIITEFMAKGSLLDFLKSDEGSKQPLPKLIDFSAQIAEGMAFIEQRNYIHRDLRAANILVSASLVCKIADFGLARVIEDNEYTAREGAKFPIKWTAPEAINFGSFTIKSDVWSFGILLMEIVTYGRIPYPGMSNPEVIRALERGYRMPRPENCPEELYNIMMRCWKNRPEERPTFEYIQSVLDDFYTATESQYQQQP
Chain of EPHB2 (P29323 whole entry, looked up): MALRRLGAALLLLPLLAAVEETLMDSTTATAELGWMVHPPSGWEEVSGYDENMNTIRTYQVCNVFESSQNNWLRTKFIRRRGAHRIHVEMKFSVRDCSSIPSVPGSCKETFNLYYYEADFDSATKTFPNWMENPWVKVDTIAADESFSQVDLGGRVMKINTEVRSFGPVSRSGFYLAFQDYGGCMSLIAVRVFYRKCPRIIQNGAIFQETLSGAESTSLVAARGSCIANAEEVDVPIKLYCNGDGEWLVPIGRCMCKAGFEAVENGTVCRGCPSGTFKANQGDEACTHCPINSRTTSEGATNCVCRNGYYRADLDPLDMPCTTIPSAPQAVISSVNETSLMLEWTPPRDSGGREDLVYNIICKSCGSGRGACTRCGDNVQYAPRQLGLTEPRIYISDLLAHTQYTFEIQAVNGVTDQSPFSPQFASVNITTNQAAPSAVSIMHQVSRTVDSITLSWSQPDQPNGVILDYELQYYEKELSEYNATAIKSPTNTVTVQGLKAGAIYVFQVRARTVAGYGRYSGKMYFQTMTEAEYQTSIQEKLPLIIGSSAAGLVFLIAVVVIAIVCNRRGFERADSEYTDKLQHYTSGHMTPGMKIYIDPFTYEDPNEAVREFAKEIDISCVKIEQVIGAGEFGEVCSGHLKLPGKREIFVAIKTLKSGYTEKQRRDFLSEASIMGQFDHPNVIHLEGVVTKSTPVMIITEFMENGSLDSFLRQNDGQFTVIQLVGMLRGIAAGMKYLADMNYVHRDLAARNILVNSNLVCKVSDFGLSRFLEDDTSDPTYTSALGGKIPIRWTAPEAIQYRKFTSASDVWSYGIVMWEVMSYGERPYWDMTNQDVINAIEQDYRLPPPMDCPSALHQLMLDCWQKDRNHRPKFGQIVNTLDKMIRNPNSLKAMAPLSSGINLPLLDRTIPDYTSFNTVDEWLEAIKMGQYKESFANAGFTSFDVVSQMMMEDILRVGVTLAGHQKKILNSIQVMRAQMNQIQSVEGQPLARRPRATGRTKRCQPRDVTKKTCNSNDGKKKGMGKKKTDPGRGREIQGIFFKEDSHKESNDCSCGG
Chain of Grb2 SH2 (P62993 whole entry, looked up): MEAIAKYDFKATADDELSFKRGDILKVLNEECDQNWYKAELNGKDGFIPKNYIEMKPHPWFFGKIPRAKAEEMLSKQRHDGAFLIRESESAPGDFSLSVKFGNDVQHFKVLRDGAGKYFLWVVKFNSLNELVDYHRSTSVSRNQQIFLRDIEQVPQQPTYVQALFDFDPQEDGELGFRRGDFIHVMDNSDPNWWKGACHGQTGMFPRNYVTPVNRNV
Chain of Fes (P07332 whole entry, looked up): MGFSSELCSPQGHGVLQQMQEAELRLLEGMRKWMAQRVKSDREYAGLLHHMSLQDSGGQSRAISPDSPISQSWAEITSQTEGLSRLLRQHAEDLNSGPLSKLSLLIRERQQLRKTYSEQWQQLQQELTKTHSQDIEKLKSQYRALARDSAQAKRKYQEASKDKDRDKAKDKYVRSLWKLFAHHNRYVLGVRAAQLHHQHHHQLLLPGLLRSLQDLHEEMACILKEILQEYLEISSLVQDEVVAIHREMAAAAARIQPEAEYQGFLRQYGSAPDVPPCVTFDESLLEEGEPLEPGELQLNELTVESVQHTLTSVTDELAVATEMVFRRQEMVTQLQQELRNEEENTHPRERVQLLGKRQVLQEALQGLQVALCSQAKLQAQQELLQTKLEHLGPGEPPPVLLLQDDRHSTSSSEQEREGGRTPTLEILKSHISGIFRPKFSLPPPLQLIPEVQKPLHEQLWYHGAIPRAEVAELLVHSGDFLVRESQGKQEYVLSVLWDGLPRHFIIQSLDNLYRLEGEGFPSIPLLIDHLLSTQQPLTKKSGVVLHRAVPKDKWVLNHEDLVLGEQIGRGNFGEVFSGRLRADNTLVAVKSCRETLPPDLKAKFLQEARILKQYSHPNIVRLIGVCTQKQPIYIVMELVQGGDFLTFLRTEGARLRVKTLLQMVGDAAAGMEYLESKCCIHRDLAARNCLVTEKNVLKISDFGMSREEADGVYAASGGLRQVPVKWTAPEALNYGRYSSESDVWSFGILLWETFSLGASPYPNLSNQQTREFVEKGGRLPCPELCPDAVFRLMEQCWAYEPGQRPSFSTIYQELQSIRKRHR

Row | Sequence | SH2 binding enrichment (Grb2 SH2) | SH2 binding enrichment (c-Src SH2) | SH2 binding enrichment (SHP2-C SH2) | phosphorylation enrichment (EPHB1) | phosphorylation enrichment (Hck) | phosphorylation enrichment (Fes) | phosphorylation enrichment (EPHB2) | phosphorylation enrichment (c-Abl (mouse)) | phosphorylation enrichment (Fer (mouse)) | phosphorylation enrichment (FGFR3) | phosphorylation enrichment (AncSZ) | phosphorylation enrichment (Jak2) | phosphorylation enrichment (Fyn) | phosphorylation enrichment (FGFR1) | phosphorylation enrichment (MERTK) | phosphorylation enrichment (c-Src)
1 | HFPFQYHRQLF [F12_Y53_YF] | 1.67 | 1.14 | 1.14 | 0.618 | 0.52 | 0.78 | 0.585 | 1.44 | 0.538 | 0.694 | 0.924 | 0.669 | 0.466 | 0.555 | 0.507 | 0.546
2 | DPTNTYARPAE [SGMS2_Y24] | 0.729 | 2 | 0.698 | 0.466 | 0.506 | 0.785 | 0.581 | 0.696 | 0.33 | 0.481 | 1.02 | 0.639 | 0.457 | 0.598 | 0.516 | 0.372
3 | EQWRAYLEGTC [HLA-C_Y183_L180W] | 0.749 | 0.466 | 0.718 | 0.648 | 0.507 | 1.23 | 0.588 | 0.845 | 0.636 | 0.951 | 1.2 | 1.17 | 0.527 | 0.65 | 0.437 | 0.398
4 | VDASYCGGRGV [ANTXR2_Y381_Y381C] | 0.62 | 0.382 | 0.331 | 0.373 | 0.342 | 0.63 | 0.28 | 0.519 | 0.48 | 0.463 | 0.712 | 0.573 | 0.676 | 0.405 | 0.559 | 0.476
5 | FVPSNYVAEDR [FRK_Y104_I100V_YF] | 0.788 | 0.588 | 0.76 | 0.527 | 0.431 | 0.827 | 0.625 | 0.625 | 0.409 | 0.662 | 0.782 | 0.642 | 0.439 | 0.447 | 0.38 | 0.35
6 | RSHLPYDVTPE [IQGAP3_Y1098] | 0.827 | 0.588 | 0.974 | 0.572 | 0.695 | 1.45 | 0.742 | 1.39 | 0.474 | 0.747 | 1.82 | 2.28 | 0.848 | 0.752 | 1 | 1.27
7 | SVTCPYSPALN [TP53_Y126_T125P] | 0.939 | 0.556 | 0.7 | 0.572 | 0.616 | 1.29 | 0.573 | 1.21 | 0.656 | 0.679 | 0.961 | 1.17 | 0.481 | 0.505 | 0.437 | 2.15
8 | ISKTWYSAEQF [CD207_Y217_P213S] | 0.822 | 0.689 | 0.781 | 1.84 | 0.481 | 0.837 | 1.8 | 0.585 | 0.521 | 0.757 | 0.793 | 0.604 | 0.532 | 0.605 | 7.68 | 0.522
9 | EFGEVYKGMLK [EPHA2_Y628] | 1.11 | 0.553 | 0.838 | 0.343 | 0.454 | 0.579 | 0.441 | 0.377 | 0.411 | 0.526 | 0.503 | 0.394 | 0.422 | 0.439 | 0.367 | 0.481
10 | SLGSPYEQPPR [PDLIM4_Y137_G138E] | 0.887 | 1.05 | 1 | 0.487 | 0.619 | 0.757 | 0.493 | 0.747 | 0.474 | 0.565 | 0.909 | 0.673 | 0.495 | 0.46 | 0.581 | 0.547
11 | FMRGMYFRMTD [PLA2G6_Y541_K545T_YF] | 0.941 | 0.914 | 1.43 | 0.698 | 0.513 | 1.2 | 0.563 | 0.715 | 0.506 | 0.663 | 1.09 | 1.39 | 0.434 | 0.496 | 0.438 | 0.481
12 | SSSAIYDNPNL [DCP1B_Y191] | 0.688 | 0.706 | 0.53 | 12.2 | 9.85 | 0.737 | 15.6 | 22.5 | 9.27 | 0.457 | 0.898 | 0.632 | 8.1 | 0.411 | 8.1 | 5.76
13 | KNRDVYSSDYF [USP24_Y2134] | 0.796 | 0.644 | 0.739 | 3.39 | 1 | 0.944 | 4.03 | 0.656 | 0.495 | 1.15 | 1.1 | 0.945 | 1.19 | 2.07 | 5.77 | 2.67
14 | LSSVSYVGCSL [ADGRD1_Y571_I569V] | 0.798 | 0.519 | 0.691 | 0.633 | 1.01 | 1.46 | 1.06 | 1.35 | 0.98 | 1.04 | 1.2 | 1.23 | 1.16 | 0.949 | 1.05 | 1.12
15 | RAADYYSQQMA [GBP6_Y334] | 1.01 | 0.545 | 0.63 | 0.917 | 0.456 | 0.619 | 0.339 | 0.576 | 0.416 | 0.875 | 0.537 | 0.672 | 0.371 | 1.38 | 0.39 | 0.435
16 | TFGVLYKARNK [CDK2_Y19_V18L_YF] | 0.828 | 0.49 | 0.423 | 0.592 | 0.561 | 0.906 | 0.599 | 0.487 | 0.536 | 0.586 | 0.838 | 0.796 | 0.421 | 0.436 | 0.343 | 0.424
17 | TTICKYITPME [GUCY2C_Y839_S840I] | 0.73 | 0.661 | 0.598 | 0.485 | 0.469 | 0.873 | 0.466 | 0.56 | 0.417 | 0.56 | 0.99 | 0.728 | 0.418 | 0.558 | 0.421 | 0.458

Row | Sequence | SH2 binding enrichment (Grb2 SH2) | SH2 binding enrichment (c-Src SH2) | SH2 binding enrichment (SHP2-C SH2) | phosphorylation enrichment (EPHB1) | phosphorylation enrichment (Hck) | phosphorylation enrichment (Fes) | phosphorylation enrichment (EPHB2) | phosphorylation enrichment (c-Abl (mouse)) | phosphorylation enrichment (Fer (mouse)) | phosphorylation enrichment (FGFR3) | phosphorylation enrichment (AncSZ) | phosphorylation enrichment (Jak2) | phosphorylation enrichment (Fyn) | phosphorylation enrichment (FGFR1) | phosphorylation enrichment (MERTK) | phosphorylation enrichment (c-Src)
18 | ASTDFYKRGDF [PDHA1_Y243_YF] | 0.614 | 0.5 | 0.611 | 0.374 | 0.39 | 0.795 | 0.375 | 0.515 | 0.475 | 0.431 | 0.719 | 0.749 | 0.325 | 0.413 | 0.345 | 0.52
19 | DLTQDSEEWKR [ORC6_Y232_Y232S] | 0.837 | 0.588 | 0.823 | 0.616 | 0.614 | 1.09 | 0.576 | 0.676 | 0.456 | 0.661 | 1.02 | 1.07 | 0.463 | 0.495 | 0.489 | 0.476
20 | LIHTKCPQLLP [AHCY_Y143_Y143C] | 0.941 | 0.714 | 0.762 | 0.516 | 0.509 | 0.936 | 0.607 | 0.604 | 0.46 | 0.631 | 0.693 | 0.654 | 0.438 | 0.509 | 0.476 | 0.433
21 | LARDMHDKEYY [MET_Y1230_Y1230H] | 0.625 | 0.395 | 0.962 | 0.469 | 0.385 | 0.678 | 0.507 | 0.395 | 0.426 | 0.589 | 0.763 | 0.628 | 0.445 | 0.46 | 0.404 | 0.425
22 | RQQQDYWLMDV [ANPEP_Y600_I603M] | 0.896 | 0.634 | 0.815 | 7.32 | 0.487 | 1.01 | 3.72 | 0.587 | 1.03 | 13.1 | 1.8 | 1.26 | 0.537 | 18 | 3.29 | 0.509
23 | MSSHHYDYKKY [ZNF445_Y428] | 0.799 | 0.64 | 0.692 | 0.394 | 0.421 | 0.513 | 0.375 | 0.438 | 0.408 | 0.46 | 0.503 | 0.441 | 0.415 | 0.338 | 0.339 | 0.383
24 | GQKTLYSFFSP [UNG_Y8] | 1.04 | 0.589 | 1.6 | 2.58 | 4.06 | 1.2 | 2.12 | 2.05 | 8.62 | 1.42 | 0.984 | 0.908 | 4.16 | 1.18 | 10.3 | 4.32
25 | EADRKYEEVAH [TPM3_Y163_R168H] | 1.01 | 20.4 | 0.626 | 0.587 | 0.531 | 1.04 | 0.423 | 0.703 | 0.521 | 0.633 | 1 | 0.938 | 0.506 | 0.493 | 0.474 | 0.421
26 | IYLGAYDRFLP [SLC22A5_Y486_V481I] | 0.979 | 0.726 | 2.29 | 2.18 | 6.82 | 1.18 | 4.21 | 2.56 | 2.42 | 0.94 | 1.72 | 1.16 | 5 | 0.918 | 6.6 | 5.43
27 | SSEYHCVGGFY [CTSC_Y347_Y347C] | 0.557 | 0.398 | 0.764 | 3.8 | 1.72 | 1.45 | 4.66 | 7.61 | 0.64 | 5.2 | 2.32 | 1.37 | 1.76 | 7.73 | 0.775 | 1.82
28 | LRTAVHHEILI [CREBBP_Y1450_Y1450H] | 0.973 | 0.48 | 0.756 | 1.02 | 0.643 | 1.39 | 0.487 | 1.94 | 0.675 | 0.812 | 1.09 | 1.32 | 0.508 | 0.963 | 0.535 | 0.701
29 | SSNLFYRCLTA [CNGA3_Y169_W171C_YF] | 0.808 | 0.399 | 0.518 | 0.638 | 0.429 | 1.36 | 0.632 | 1.06 | 0.497 | 0.742 | 1.03 | 1.12 | 0.384 | 0.491 | 0.42 | 0.454
30 | KKARAYRPGIE [FLNA_Y287_G288R] | 0.761 | 0.469 | 0.606 | 0.289 | 0.323 | 0.45 | 0.417 | 0.455 | 0.31 | 0.357 | 0.499 | 0.565 | 0.338 | 0.299 | 0.371 | 0.449
31 | AHAGEYGEEAL [HBA1_Y25_A27E] | 0.745 | 0.473 | 0.599 | 0.664 | 0.821 | 1.47 | 0.736 | 1.01 | 0.615 | 0.793 | 1.25 | 1.35 | 0.576 | 0.66 | 0.544 | 0.582
32 | GKFHMYVAVWT [F13A1_Y161_R159H] | 1.03 | 0.535 | 0.825 | 0.491 | 0.498 | 1.1 | 0.479 | 1.45 | 0.445 | 0.669 | 1.18 | 1.06 | 0.407 | 0.516 | 0.351 | 0.368
33 | FAKSVYWDNTL [NUP107_Y296_E298D_YF] | 0.781 | 0.691 | 0.694 | 0.719 | 0.578 | 1.04 | 0.772 | 0.656 | 0.463 | 0.688 | 1 | 1.02 | 0.679 | 0.525 | 0.725 | 0.76

— the supplement of paper PMC10065799, “High-throughput profiling of sequence recognition by tyrosine kinases and SH2 domains using bacterial peptide display” (eLife, 2023)
